{
  "source": "patent US20150018228A1",
  "about": "“ENZYME DETECTION BY MICROFLUIDICS” (priority 2011, published 2015)",
  "molecules": {"B1": {"name": "S(TopI): self-folding oligonucleotide substrate for human topoisomerase I, SEQ ID NO: 25 (nucleic acid)", "chain": "AGAAAAATTTTTAAAAAAACTGTGAAGATCGCTTATTTTTTTAAAAATTTTTCTAAGTCTTTTAGATCCCTCAATGCTGCTGCTGTACTACGATCTAAAAGACTTAGA", "modifications": "listed as DNA, chemistry not fully specified"}, "B2": {"name": "pfTopI(S1): hairpin oligonucleotide sensor circularized by pfTopI, SEQ ID NO: 8 (nucleic acid)", "chain": "TCTAGAAAGTATAGGAACTTCGAACGACTCAGAATGACTGTGAAGATCGCTTATCCTCAATGCACATGTTTGGCTCCCATTCTGAGTCGTTCGAAGTTCCTATACTTT", "modifications": "chemistry not fully specified"}},
  "format_in_all_cases": "biochemical, Plasmodium falciparum",
  "key": {"[1]": {"system": "pfTopI", "assay": "Cleavage-ligation assay with radio-labeled DNA substrates in absence or presence of camptothecin", "details": "60 μM CPT, duplex OL62/OL63, 20 min at 37° C.", "protocol": "Detection of PfTopI activity using radio-labeled DNA substrates: DNA cleavage reactions were carried out by incubating 20 nM duplex OL37/OL56 or OL62/OL63 with 500 fmol of pfTopI or hTopI in the absence or presence of 60 μM CPT for 20 min at 37° C. in 10 mM Tris (pH 7.5), 5 mM MgCl2, and 5 mM CaCl2 in a final volume of 20 μl. After the 20 min incubation, reactions were stopped with 0.5% (w/v) SDS. Samples were subjected to ethanol precipitation, resuspended in 10 μl of 1 mg/ml trypsin and incubated at 37° C. for 30 min. Reaction products were analyzed by denaturing polyacrylamide gel electrophoresis following standard procedures, and radioactive bands were visualized by PhosphorImaging."}, "[2]": {"system": "pfTopI", "assay": "RCA-based biosensor (REEAD) circularization of oligonucleotide substrates by purified pfTopI", "protocol": "As shown in FIG. 1A and FIG. 4, in contrast to its human counterpart, pfTopI is able to cleave close to DNA ends with high efficiency. […] To address this possibility, purified pfTopI was incubated with each of the substrates Su2-Su6 (FIG. 1B) and the products analysed using the RCA based detection system as schematically outlined in FIG. 1C. The sequence of the substrates Su4, Su5, and Su6 was modified to match the sequence that was cleaved with high efficiency in substrate XX.\nBased on this, five different oligonucleotides with potential of being circularized specifically by pfTopI cleavage-ligation were designed. These oligonucleotides (PfTop1(S1-S5)) all folded into a hairpin structure containing a probe- and a primer-annealing sequence in the single-stranded loop and a potential pfTopI recognizable sequence at the end of the double-stranded stem region (FIG. 1b). […] To allow comparative quantification of signals generated in different reactions, a known concentration of control-circle with a unique probe-annealing sequence was added to the reaction mixtures before RCA and resulting RCPs visualized using a green-fluorescent probe. […]\n(§1) The 5′-amine-conjugated primer was coupled to CodeLink Activated Slides (SurModics) according to the manufacturer's description. […] Quantification of pfTopI specific signals was performed as previously described^1."}, "[3]": {"system": "pfTopI", "assay": "REEAD in nuclear extract from HEK293T cells with or without spike-in pfTopI", "details": "signals only with spike-in pfTopI", "protocol": "The use of Su2 for detecting pfTopI activity in human cell extracts in the RCA-based biosensor setup was also verified. […] As a control for successful RCA and probe annealing a circularized control circle was added to each sample before annealing to the primer coated slide. […] As expected, comparative levels of green and blue spots corresponding to RCPs from […] and control circles, respectively, could be observed in both samples (FIG. 2A).\nThe specificity of pfTopI(S1) for pfTopI in crude biological samples was addressed using nuclear extract from human HEK293T cells with or without spike-in pfTopI as a model for Plasmodium infection. […] Consequently, green signals observed in FIG. 22b, right panel, originated from hTopI and pfTopI activity in combination where pfTopI(S1) and S(TopI) competed for reaction by pfTopI at the expense of sensitivity.\nHuman embryonic kidney HEK293T cells were cultured in Dulbecco's Modified Eagle Medium (GIBCO) supplemented with 10% fetal bovine serum (FBS) (GIBCO), 100 units/mL penicillin and […] streptomycin (Invitrogen). Cells were incubated in a humidified incubator (5% CO2/95% air atmosphere at 37° C.). […]\nas §1"}, "[4]": {"system": "pfTopI", "assay": "REEAD with HRP-mediated colorimetric readout, purified pfTopI", "details": "purified pfTopI circularizing S1", "text": "To investigate if the Plasmodium-specific REEAD could be adapted to simple colorimetric readout, suitable for low-resource settings without compromising sensitivity, an additional enzymatic step was introduced to the assay by coupling streptavidin-fused HRP to biotinylated RCPs as described by Yan, J. et al. An on-nanoparticle rolling-circle amplification platform for ultrasensitive protein detection in biological fluids. Small 6, 2520-2525 (2010). HRP oxidizes colorless tetramethylbenzidine to a blue-colored form, detectable to the naked eye or by spectrophotometric measurements. This, of course, is at the expense of the possibility of multiplexing since RCPs originating from different circles cannot be distinguished. […] This, however, imposed the advantage of preventing competition between S(TopI) and pfTopI(S1) for pfTopI, as discussed above. The two readout formats were compared by reacting pfTopI(S1) with increasing dilutions of extracts from blood sample #2 followed by microscopic visualization of RCPs or by spectrophotometric measurement of HRP substrate conversion. As evident from FIG. 23 colorimetric readout increased sensitivity of REEAD by a factor two compared to microscopic readout. […]"}},
  "data": [
    {"molecule": "CC[C@@]1(O)C(=O)OCc2c1cc1n(c2=O)Cc2cc3ccccc3nc2-1", "note": "[camptothecin]", "values": [
      {"measurement": "effect on ligation product formation by pfTopI", "setting": "[1]", "value": "ligation product is only observed upon incubation of the substrate with pfTopI in the absence of camptothecin"}
    ]},
    {"molecule": "B1", "values": [
      {"measurement": "circularization (conversion to closed circles) by pfTopI", "setting": "[2]; purified recombinant pfTopI, RCA and fluorescent probe readout", "value": "circularizes S(TopI)"}
    ]},
    {"molecule": "B2", "values": [
      {"measurement": "circularization efficiency by pfTopI, substrate signals relative to control circle signals", "setting": "[2]; purified pfTopI, compared among the tested substrates", "value": "the most efficient sensor of pfTopI"},
      {"measurement": "specificity for pfTopI in crude human cell extract", "setting": "[3]", "value": "specificity of pfTopI(S1) for pfTopI even on a background of human nucleus content"},
      {"measurement": "detection of pfTopI, spectrophotometric measurement of HRP reaction", "setting": "[4]; FIG. 27", "value": 2, "unit": "aM"},
      {"measurement": "detection of pfTopI, direct visual detection of HRP reaction", "setting": "[4]; data not shown", "value": 200, "unit": "aM"}
    ]}
  ]
}
